Test results taken from article PMC4331662.

Biological target: D. melanogaster cellular repressor of E1A-stimulated genes (dCREG), residues 24-212, produced in E. coli from pFO4/dCREG (D. melanogaster)
Assay: SEC; Superdex 75 HR 10/30, 50 mM sodium phosphate buffer pH 7.0, 150 mM NaCl, flow 0.5 ml/min, absorbance at 280 nm

stoichiometry N: 2
Substance: D. melanogaster cellular repressor of E1A-stimulated genes (dCREG), residues 24-212, produced in E. coli from pFO4/dCREG (natural protein)
